Experimental data reported in paper PMC7873233.

What was measured:
[1] = biological target: 16055 SOSIP.v5.2 (HIV-1 (clade C isolate 16055)); assay: negative-stain EM; PGT145-purified protein, 20-50 ug/mL on carbon-coated Cu grids, 2% uranyl formate, 2D class averages; gp120-gp41 protomers to trimer
[2] = biological target: 16055 SOSIP.v8.3 (HIV-1 (clade C isolate 16055)); assay: as above

Substance	percent native-like trimers [1] [%]	stoichiometry N [1]	percent native-like trimers [2] [%]	stoichiometry N [2]
16055 SOSIP.v5.2 (complex)	72	3	–	–
16055 SOSIP.v8.3 (complex)	–	–	> 95	3
